Source: US20060121047A1, “Use of hmgb polypetides for increasing immune responses” (priority 2002, published 2006)

What was measured:
[1] = tested on: Murine macrophage-like RAW 264.7 cells; assay: TNF release from RAW 264.7 cells (L929 cytotoxicity bioassay); type: cell-based; conditions: for TNF release, dose dependence: B box 0-10 μg/ml, 8 hours (FIG. 2A)
Method: (§1) Murine macrophage-like RAW 264.7 cells (American Type Culture Collection, Rockville, Md.) were cultured in RPMI 1640 medium (Life Technologies, Grand Island N.Y.) supplemented with 10% fetal bovine serum (Gemini, Catabasas, Calif.), penicillin and streptomycin (Life Technologies) and were used at 90% confluence in serum-free Opti-MEM I medium (Life Technologies, Grand Island, N.Y.). […] Polymyxin B was not used in experiments of synthetic peptide studies.
TNF release was measured by a standard murine fibroblast L929 (ATCC, American Type Culture Collection, Rockville, Md.) cytotoxicity bioassay (Bianchi et al., Journal of Experimental Medicine 183:927-936, 1996) with the minimum detectable concentration of 30 pg/ml. Recombinant mouse TNF was obtained from R&D system Inc., (Minneapolis, MN). Murine fibroblast L929 cells (ATCC) were cultured in DMEM (Life Technologies, Grand Island, N.Y.) supplemented with 10% fetal bovine serum (Gemini, Catabasas, Calif.), penicillin (50 units/ml) and streptomycin (50 μg/ml) (Life Technologies) in a humidified incubator with 5% CO2.
The effect of the mutants on TNF release from Murine macrophage-like RAW 264.7 cells (ATCC) was carried out as follows. RAW 264.7 cells were cultured in RPMI 1640 medium (Life Technologies, Grand Island N.Y.) supplemented with 10% fetal bovine serum (Gemini, Catabasas, Calif.), penicillin and streptomycin (Life Technologies). Polymyxin (Sigma, St. Louis, Mo.) was added at 100 units/ml to suppress the activity of any contaminating LPS. Cells were incubated with 1 μg/ml of full length (wild-type) HMGB1 and each HMGB1 mutant protein in Opti-MEM I medium for 8 hours, and conditioned supernatants (containing TNF which had been released from the cells) were collected and TNF released from the cells was measured by a standard murine fibroblast L929 (ATCC) cytotoxicity bioassay (Bianchi et al., supra) with the minimum detectable concentration of 30 pg/ml. Recombinant mouse TNF was obtained from R & D Systems Inc., (Minneapolis, Minn.) and used as control in these experiments. Data in FIG. 1 are all presented as mean+SEM unless otherwise indicated. (=6−10).
(§2) To further examine the effect of HMGB1 B box on cytokine production, varying amounts of HMGB1 B box were evaluated for the effects on TNF, IL-1B, and IL-6 production in murine macrophage-like RAW 264.7 cells. Conditioned media were harvested and measured for TNF, IL-1β and IL-6 levels. TNF levels were measured as described herein, and IL-1β and IL-6 levels were measured using the mouse IL-1β and IL-6 enzyme-linked immunosorbent assay (ELISA) kits (R&D System Inc., Minneapolis, 1) and N>5 for all experiments.
The kinetics of B box-induced TNF release was also examined. TNF release and TNF mRNA expression was measured in RAW 264.7 cells induced by B box polypeptide or GST tag polypeptide only used as a control (vector) (10 μg/ml) for 0 to 48 hours. Supernatants were analyzed for TNF protein levels by an L929 cytotoxicity assay (N=3-5) as described herein. For mRNA measurement, cells were plated in 100 mm plate and treated in Opti-MEM I medium containing B box polypeptide or the vector alone for 0, 4, 8, or 24 hours, as indicated in FIG. 2D. The vector only sample was assayed at the 4 hour time point. Cells were scraped off the plate and total RNA was isolated by RNAzol B method in accordance with the manufacturer's instructions (Tel-Test “B”, Inc., Friendswood, Tex.). TNF (287 bp) was measured by RNase protection assay (Ambion, Austin, Tex.). Equal loading and the integrity of RNA was verified by ethidium bromide staining of the RNA sample on agarose-formaldehyde gel. […] TNF mRNA expression was maximal at 4 hours and decreased at 8 and 24 hours. […] A similar study was carried out measuring TNF protein released from RAW 264.7 cells 0, 4, 8, 24, 32 or 48 hours after administration of B box or vector only (GST tag), using the L929 cytotoxicity assay described herein. […] Data are representative of three separate experiments. […]

[2] = tested on: RAW 264.7 cells; assay: IL-6 release from RAW 264.7 cells (ELISA); type: cell-based, murine; conditions: B box 0-10 μg/ml, 8 hours (FIG. 2C)
Method: as §1, §2

[3] = tested on: D-galactosamine-sensitized Balb/c mice; assay: Histology of organs of D-galactosamine-sensitized Balb/c mice; type: in vivo; conditions: 1 mg/mouse i.p. plus D-gal, 7 hours
Method: To further assess the lethality of the HMGB1 B box protein in vivo the HMGB1 B box was again administered to D-galactosamine-sensitized Balb/c mice. Mice (3 per group) received D-gal (20 mg/mouse) plus B box or vector (1 mg/mouse) intraperitoneally for 7 hours and were then sacrificed by decapitation. Blood was collected, and organs (liver, heart, kidney and lung) were harvested and fixed in 10% formaldehyde. Tissue sections were prepared with hematoxylin and eosin staining for histological evaluation (Criterion Inc., Vancouver, Canada). […] In FIG. 4J, hepatocyte dropouts are seen surrounded by accumulated polymorphonuclear leukocytes. The arrows in FIG. 4J point to the sites of polymorphonuclear accumulation (dotted) or apoptotic hepatocytes (solid).

[4] = tested on: C3H/HeJ mice; assay: Lethality and histology in C3H/HeJ mice; type: in vivo
Source text: Male 6-8 week old Balb/c and C3H/HeJ mice were purchased from Harlen Sprague-Dawley (Indianapolis, Ind.) and were allowed to acclimate for 7 days before use in experiments. All animals were housed in the North Shore University Hospital Animal Facility under standard temperature, and a light and dark cycle.

B1: B box: Recombinant GST-system human HMGB1 mutant containing only the B box, 74 amino acids, SEQ ID NO: 20 (protein, listed as Homo sapiens)
chain: FKDPNAPKRLPSAFFLFCSEYRPKIKGEHPGLSIGDVAKKLGEMWNNTAADDKQPYEKKAAKLKEKYEKDIAAY
modifications: GST system
TNF release ([1]; 1 μg/ml protein, 8 hours, RAW 264.7 cells (FIG. 1)): potent activator of monocyte TNF release | time of maximum TNF protein release ([1]; 10 μg/ml): ≤ 8 h | TNF protein expression/release versus medium only ([1]; 10 μg/ml, 0 to 48 hours): stimulated TNF protein expression | TNF release, dose dependence [1]: increased with increased amounts of B box | TNF release, dose dependence ([1]; listed as HMGB1 B box): dose-dependently stimulated release | IL-6 release, dose dependence [2]: increased with increased amounts of B box | IL-6 release, dose dependence ([2]; listed as HMGB1 B box): dose-dependently stimulated release | histology of heart [3]: some ischemic changes and loss of cross striation in myocardial fibers | histology of kidneys and lungs [3]: no abnormality | histology of liver [3]: active hepatitis | histology of heart ([4]; 8 hours after administration): evidence of ischemia with loss of cross striation | histology of liver ([4]; 8 hours after administration): mild acute inflammatory responses | histology of lung and kidney ([4]; 8 hours after administration): no abnormal morphologic changes | lethality ([4]; C3H/HeJ mice (do not respond to endotoxin)): lethal
